In paper PMC4172209 (2014):
Where no end group is shown, it is not given here. The star is where a group is joined. FITC = O=C1OC2(c3ccc(O)cc3Oc3cc(O)ccc32)c2ccc(NC(=S)*)cc21; βAla = NCCC(=O)O

T1: PTH1R C-terminal peptide (FITC-PTH1Rct) (Homo sapiens)
T1 chain: {FITC-βAla}-PERPPALLQEEWETVM


What was measured:
[1] = molecular target: NHERF1 PDZ1 (Homo sapiens) (UniProt O14745); details: cited from earlier work
[2] = molecular target: T1, PTH1R C-terminal peptide (FITC-PTH1Rct); assay: fluorescence polarization

Chain of PTH1R C-terminal peptide C-terminus (Q03431 572-593): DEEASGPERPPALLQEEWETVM

Kd [2] | Molecule | Kd [1]
 | PTH1R C-terminal peptide C-terminus (from UniProt Q03431) | 11 µM
19 µM | NHERF1 PDZ1 1-140 (protein) MSADAAAGAPLPRLCCLEKGPNGYGFHLHGEKGKLGQYIRLVEPGSPAEKAGLLAGDRLVEVNGENVEKETHQQVVSRIRAALNAVRLLVVDPETDEQLQKLGVQVREELLRAQEAPGQAEPPAAAEVQGAGNENEPREA | 
